Entries after “also recorded” stand apart in the source; their conditions may differ. Peptide text beside a SMILES is read from it.
Key:
[1] = tested on: tyrosine phosphorylation of FRS2α and downstream activation of MAP kinase cascade; assay: Phosphorylation of FRS2α and 44/42 MAP kinase in HEK293-Klotho cells; format: cell-based; details: for inhibition of FGF23-induced phosphorylation of FRS2α and MAP kinase activation: FGF23^28-251 1 nM, 10 min
Procedure: Subconfluent HEK293-Klotho cells (Kurosu et al., “Regulation of Fibroblast Growth Factor-23 Signaling by Klotho,” J Biol Chem 281(10):6120-6123 (2006), which is hereby incorporated by reference in its entirety) were serum starved for 16 h and then stimulated for 10 min with either FGF23^28-251 (0.33 to 10 nM) or FGF23^180-251 (0.76 to 76.3 nM). In parallel experiments, cells were stimulated with FGF23^28-251 (1 nM) alone or with FGF23^28-251 (1 nM) mixed with increasing concentrations of either FGF23^180-251 (0.76 to 76.3 nM) or FGF23^180-205 (0.1 to 10 μM). Cell stimulation with FGF2 (2.9 nM) alone or FGF2 (2.9 nM) mixed with increasing concentrations of FGF23^180-251 (0.76 to 76.3 nM) served as controls. Similarly, subconfluent cells of a CHO cell line stably expressing Klotho (Imura et al., “Secreted Klotho Protein in Sera and CSF: Implication for Post-translational Cleavage in Release of Klotho Protein from Cell Membrane,” FEBS Lett 565(1-3):143-147 (2004), which is hereby incorporated by reference in its entirety) were treated with either FGF23^28-251 (0.067 to 20 nM) or FGF23^28-200 (0.04 to 12 nM).
In a separate experiment, the biological activity of the bacterially expressed FGF23^28-251 protein was compared to that of FGF23^25-251 expressed in the mouse myeloma cell line NS0 (R&D Systems). Subconfluent HEK293-Klotho cells were serum starved, and then treated with either of the two FGF23 proteins.
After stimulation, the cells were lysed (Kurosu et al, “Suppression of Aging in Mice by the Hormone Klotho,” Science 309(5742):1829-1833 (2005), which is hereby incorporated by reference in its entirety), and cellular proteins were resolved on SDS-polyacrylamide gels, transferred to nitrocellulose membranes, and the protein blots were probed with antibodies to phosphorylated FGF receptor substrate-2α (FRS2α), phosphorylated 44/42 MAP kinase and non-phosphorylated 44/42 MAP kinase, and Klotho. Except for the anti-Klotho antibody (Kato et al., “Establishment of the Anti-Klotho Monoclonal Antibodies and Detection of Klotho Protein in Kidneys,” Biochemical Biophysical Res Communications 267(2):597-602 (2000), which is hereby incorporated by reference in its entirety), all antibodies were from Cell Signaling Technology.

NaPi-2C = NaPi-2C protein abundance in apical brush border membrane of rat kidney; format: in vivo; details: IV 0.1 μg kg body weight^−1, 3 h post injection, vs vehicle
Procedure: Immunoblot analysis of NaPi-2A and NaPi-2C protein abundance in renal cortex tissue and isolated brush border membrane vesicles (BBMV), and NaPi-2A immunostaining of renal tissue were performed as described (Bacic et al., “Activation of Dopamine Dl-like Receptors Induces Acute Internalization of the Renal Na^+/phosphate Cotransporter NaPi-IIa in Mouse Kidney and OK cells,” Am J Physiol Renal Physiol 288(4):F740-747 (2005), Loffing et al., “Renal Na/H Exchanger NHE-3 and Na—PO4 Cotransporter NaPi-2 Protein Expression in Glucocorticoid Excess and Deficient States,” J Am Soc Nephrol 9(9):1560-1567 (1998), Moe et al., “Dietary NaCl Modulates Na(+)-H+ Antiporter Activity in Renal Cortical Apical Membrane Vesicles,” Am J Physiol 260(1 Pt 2):F130-137 (1991), which are hereby incorporated by reference in their entirety).
For immunoblot, rat kidney cortices were dissected and homogenized, and BBMV were isolated (Loffing et al., “Renal Na/H Exchanger NHE-3 and Na—PO4 Cotransporter NaPi-2 Protein Expression in Glucocorticoid Excess and Deficient States,” J Am Soc Nephrol 9(9):1560-1567 (1998), Moe et al., “Dietary NaCl Modulates Na(+)-H+ Antiporter Activity in Renal Cortical Apical Membrane Vesicles. Am J Physiol 260(1 Pt 2):F130-137 (1991), which are hereby incorporated by reference in their entirety). […]

Molecule: CSCC[C@H](NC(=O)[C@H](CCCNC(=N)N)NC(=O)[C@H](C)NC(=O)[C@H](CCCNC(=N)N)NC(=O)[C@@H]1CCCN1C(=O)[C@H](CCCCN)NC(=O)[C@H](CC(C)C)NC(=O)[C@@H](NC(=O)[C@H](CC(N)=O)NC(=O)[C@H](CC(C)C)NC(=O)[C@@H]1CCCN1C(=O)[C@H](CC(=O)O)NC(=O)[C@H](CCCNC(=N)N)NC(=O)[C@H](CCC(=O)O)NC(=O)[C@H](CO)NC(=O)[C@H](CC(=O)O)NC(=O)[C@H](CC(=O)O)NC(=O)[C@H](CCC(=O)O)NC(=O)[C@H](C)NC(=O)[C@@H](N)CO)C(C)C)C(=O)N[C@H](C(=O)N1CCC[C@H]1C(=O)N[C@@H](C)C(=O)N1CCC[C@H]1C(=O)N[C@@H](C)C(=O)N[C@@H](CO)C(=O)O)[C@@H](C)O [FGF23^180-205] (H-SAEDDSERDPLNVLKPRARMTPAPAS-OH; N-terminus and C-terminus assumed)
- inhibition of FGF23-induced phosphorylation of FRS2α and MAP kinase activation [1]: inhibited, in a dose-dependent fashion

B1: FGF23^28-251: human FGF23 (A28 to I251), bioactive full-length ligand expressed in E. coli (protein, listed as Homo sapiens)
chain: ASPLLGSSWGGLIHLYTATARNSYHLQIHKNGHVDGAPHQTIYSALMIRSEDAGFVVITGVMSRRYLCMDFRGNIFGSHYFDPENCRFQHQTLENGYDVYHSPQYHFLVSLGRAKRAFLPGMNPPPYSQFLSRRNEIPLIHFNTPIPRRHTRSAEDDSERDPLNVLKPRARMTPAPASCSQELPSAEDNSPMASDPLGVVRGGRVNTHAGGTGPEGCRPFAKFI
- NaPi-2C protein expression in the apical brush border membrane (NaPi-2C): diminished

B2: FGF23^180-251: 72-amino acid C-terminal tail of human FGF23 (S180 to I251), expressed in E. coli (protein, listed as Homo sapiens)
chain: SAEDDSERDPLNVLKPRARMTPAPASCSQELPSAEDNSPMASDPLGVVRGGRVNTHAGGTGPEGCRPFAKFI
- inhibition of FGF2-induced phosphorylation of FRS2α and MAP kinase activation ([1]; FGF2 2.9 nM): failed to inhibit
- inhibition of FGF23-induced phosphorylation of FRS2α and MAP kinase activation [1]: inhibited, in a dose-dependent fashion
- FGFR activation (FRS2α and 44/42 MAP kinase phosphorylation as readouts) ([1]; peptide alone / with FGF23): had no activity alone; also recorded: functioned as an antagonist
- NaPi-2C protein expression in the apical brush border membrane (NaPi-2C): increased
